A word on the Ki: it is a dissociation constant, usually derived from enzyme kinetics or from competition with a known ligand. Higher therefore signals weaker binding.

Ki data for three molecules are collected here from paper PMC6201908, “Affinity, potency, efficacy, and selectivity of neurokinin A analogs at human recombinant NK2 and NK1 receptors” (PLoS ONE, 2018).

Non-standard residues stand in square brackets, D forms with d. No end group written: not given here. NMeL = CN[C@@H](CC(C)C)C(=O)O

To fix the notation:
T1: NK1 receptor (Homo sapiens, UniProt P25103)
T1 chain: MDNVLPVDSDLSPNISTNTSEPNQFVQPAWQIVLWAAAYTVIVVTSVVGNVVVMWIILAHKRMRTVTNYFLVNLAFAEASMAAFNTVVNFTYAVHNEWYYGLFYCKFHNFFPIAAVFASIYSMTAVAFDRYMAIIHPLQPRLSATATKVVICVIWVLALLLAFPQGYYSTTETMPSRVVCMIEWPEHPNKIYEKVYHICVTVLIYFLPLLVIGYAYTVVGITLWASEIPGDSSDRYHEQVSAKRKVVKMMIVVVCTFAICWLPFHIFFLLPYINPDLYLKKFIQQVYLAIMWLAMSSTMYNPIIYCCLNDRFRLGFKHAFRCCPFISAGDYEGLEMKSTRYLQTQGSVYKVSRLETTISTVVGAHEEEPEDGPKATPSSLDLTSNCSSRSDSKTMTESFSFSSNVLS

T2: NK2 receptor (Homo sapiens, UniProt P21452)
T2 chain: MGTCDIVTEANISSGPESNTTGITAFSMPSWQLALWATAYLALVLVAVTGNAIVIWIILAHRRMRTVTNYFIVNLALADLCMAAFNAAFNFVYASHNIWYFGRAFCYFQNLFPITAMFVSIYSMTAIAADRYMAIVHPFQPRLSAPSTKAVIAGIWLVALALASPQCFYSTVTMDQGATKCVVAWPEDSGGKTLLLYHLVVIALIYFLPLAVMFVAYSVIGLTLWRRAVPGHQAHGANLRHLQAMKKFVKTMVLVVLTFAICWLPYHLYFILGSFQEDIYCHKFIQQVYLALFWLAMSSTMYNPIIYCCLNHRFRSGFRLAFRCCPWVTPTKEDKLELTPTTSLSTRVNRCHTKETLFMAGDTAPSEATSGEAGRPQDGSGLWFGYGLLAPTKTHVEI

B1: [Arg5]-NKA(4-10) (peptide)
chain: DRFVGLM-NH2
B2: [Arg5,MeLeu9]-NKA(4-10) (peptide)
chain: DRFVG[NMeL]M-NH2
modifications: N-terminus assumed
SMILES: CSCC[C@H](NC(=O)[C@H](CC(C)C)N(C)C(=O)CNC(=O)[C@@H](NC(=O)[C@H](Cc1ccccc1)NC(=O)[C@H](CCCNC(=N)N)NC(=O)[C@@H](N)CC(=O)O)C(C)C)C(N)=O
B3: [Lys5,MeLeu9]-NKA(4-10) (peptide)
chain: DKFVG[NMeL]M-NH2

The target of the first assay is T1, NK1 receptor. As to the kind of experiment: [3H]-Septide displacement.
The molecule B1 returned a Ki of 8.3 nM.
Molecule B2 had a Ki of 20.9 nM.
B3: affinity was put at a Ki of 50.1 nM.

For another assay, the target named is T2, NK2 receptor. As to the kind of experiment: [125I]-NKA displacement.
B1 gave a Ki of 0.31 nM.
The molecule B2 returned a Ki of 0.12 nM.
The same measure, in the same setting: the same measure for B3: 0.2 nM.
